The values below come from article PMC5493658, “Post-secretional activation of Protease IV by quorum sensing in Pseudomonas aeruginosa” (Scientific Reports, 2017).

The target of the assay is T1, P-PIV: His-tagged protease IV (PIV) purified from PAO-T7 (Pseudomonas aeruginosa, UniProt Q9HWK6 212-462).
T1 construct: Protease IV (PIV), lysyl-endopeptidase encoded by piv, Pseudomonas aeruginosa; 26 kDa mature PIV left after removal of the signal peptide and the propeptide (residues 1-211 of the 48 kDa prepro-PIV); because the N-terminus is processed twice during secretion it is probably C-terminal (surmise); also called His-tagged active PIV; mature PIV; source: P. aeruginosa PAO-T7 harboring pQF21c-PIV, …
T1 sequence: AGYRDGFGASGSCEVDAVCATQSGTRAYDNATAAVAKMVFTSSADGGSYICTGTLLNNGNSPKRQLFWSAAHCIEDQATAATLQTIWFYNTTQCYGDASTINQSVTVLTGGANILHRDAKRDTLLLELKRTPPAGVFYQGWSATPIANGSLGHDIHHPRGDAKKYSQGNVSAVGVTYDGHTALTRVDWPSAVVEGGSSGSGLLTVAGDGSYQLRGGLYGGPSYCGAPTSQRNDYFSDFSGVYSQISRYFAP
Description: pull-down; 1 ug purified propeptide mixed with 1 ug His-tagged P-PIV in 25 ul, room temperature 10 min; loaded on Ni-NTA agarose column, washed twice with 5 mM imidazole, eluted with 200 mM imidazole; SDS-PAGE. The note with it: both partners purified.

B1: propeptide of PIV purified from E. coli (domain or fragment)
chain: APGASEMAGDVAVLQASPASTGHARFANPNAAISAAGIHFAAPPARRVARAAPLAPKPGTPLQVGVGLKTATPEIDLTTLEWIDTPDGRHTARFPISAAGAASLRAAIRLETHSGSLPDDVLLHFAGAGKEIFEASGKDLSVNRPYWSPVIEGDTLTVELVLPANLQPGDLRLSVPQVSYFADSLYK
notes: Propeptide of protease IV (PIV), Pseudomonas aeruginosa; expressed as residues 1-211 of prepro-PIV (signal peptide and propeptide); also called purified propeptide; PP; source: E. coli BL21 (DE3) harboring pET16b-pro, purified (Ni-NTA, Q sepharose, size exclusion chromatography); not shown: His tag, N-terminal, cleaved
Take B1: the binding result is “binds”.
